From US20250355001A1, “METHOD FOR DETECTING A TAU PROTEIN FRAGMENT IN A SAMPLE” (GTINVENT LIMITED, priority 2022, published 2025)

B1: E1E8: dGAE (391E) specific clone, Table 9; SEQ ID NO: 250 (protein)
scFv: QVQLQESGPSLVKPSQTLSLTCTVSGFSLTDWGVAWVRQAPGKALEWLGTMRSGGTTDDNPALKSRLSITRDTSKSQVSLSLSSVTTEDMAMYYCARGYLSGVHYAWGRGLLVTVSSEGKSSGASGESKVDDQAVLTQPSSVSGSLGQSVSITCSGSSSNVGDGRYVSWFQQVPGSAPKLLIYDTTSRASGVPDRFSGSRSGNTATLIITSLQAEDEADYYCASIDSGNNLLFGSGTRLTVLG
modifications: E1E8 amino acid sequence
B2: E2E8: dGAE (391E) specific clone, Table 9; SEQ ID NO: 248 (protein)
scFv: QVQLQESGPSLVKPSQTLSLTCTVSGFSLTDRGVAWVRQAPGKALEWVGTMRSGGTIDYNPALKSRLSITRDTSKSQVFLSLSSVTTEDMAMYYCARGYLSGDRYAWGRGLLVTVSSEGKSSGASGESKVDDQAVLTQPSSVSKSLGQSVSIACSGSRSDIGYGNYVSWFQQIPGSAPKLLIYDTNTRASGVPDRFSGARSGNTATLTINSLQAEDEADYYCANIDSSRSHLFGSGTRLTVLG
modifications: E2E8 amino acid sequence
B3: S1D12 mAb: S1D12 reformatted; heavy chain SEQ ID NO: 445, light chain 446 (antibody)
heavy: QVQLQESGPSLVKPSQTLSLTCTVSGFSLNNNAVGWVRQAPGKVPESLVGCSSDGTCYYNSALKSRLDITRDTSKNQISLSLSSVTTDDAAVYYCTRGHYSIYGYDYLGTIDYWGPGLLVTVSSAKTTAPSVYPLAPVCGDTTGSSVTLGCLVKGYFPEPVTLTWNSGSLSSGVHTFPAVLQSDLYTLSSSVTVTSSTWPSQSITCNVAHPASSTKVDKKIEPRGPTIKPCPPCKCPAPNLLGGPSVFIFPPKIKDVLMISLSPIVTCVVVDVSEDDPDVQISWFVNNVEVHTAQTQTHREDYNSTLRVVSALPIQHQDWMSGKEFKCKVNNKDLPAPIERTISKPKGSVRAPQVYVLPPPEEEMTKKQVTLTCMVTDFMPEDIYVEWTNNGKTELNYKNTEPVLDSDGSYFMYSKLRVEKKNWVERNSYSCSVVHEGLHNHHTTKSFSRTPGK
light: QAVLTQPSSVSGSLGQRVSITCSGSSSNVGGGNSVGWYQHLPGSGLKTIIYDTNSRPSGVPDRFSGSRSGNTATLTINSLQAEDEGDYYCVTGDSTTHDDLVGSGTRLTVLGGQPKSSPSVTLFPPSSEELETNKATLVCTITDFYPGVVTVDWKVDGTPVTQGMETTQPSKQSNNKYMASSYLTLTARAWERHSSYSCQVTHEGHTVEKSLSRADCS
modifications: S1D12 mAB Heavy Chain; S1D12 mAB Light Chain

Experiments:
[1] = test system: hT40, dGA, dGAE and truncated tau fragments; experiment: Binding ELISA / epitope mapping of anti-tau scAbs with truncated tau proteins and 13mer peptides; set-up: species or system human; conditions: for cross-reactivity using hT40, dGA and dGAE antigens: ELISA, 'E' group scAbs; for Tau proteins/fragments with positive scAb reactivity: Table 15, binding ELISA, residue numbers of hT40
In short: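 Serially double-diluted scAbs were applied to 2% MPBS-blocked wells carrying either 1 μg/ml full-length or truncated tau, or biotinylated 13mer peptides (1 μg/ml) captured on 5 μg/ml streptavidin. Absorbance after HRP anti-human C kappa secondary gave the binding signal.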

dGAE (SEQ ID NO: 4) = dGAE (SEQ ID NO: 4) (Homo sapiens, UniProt P10636); experiment: Biacore X100 SPR kinetics of scAbs for dGAE; format: binding; conditions: Table 24, scAb, dGAE analyte; for Kd: dissociation rate
Experimental: Surface plasmon resonance (SPR) is widely regarded as the gold standard for real time measurement of protein-protein interactions such as antibody binding. All SPR experiments were carried out using a Biacore X100 machine and HBS EP+ running buffer (GE Healthcare). A ‘capture’ method was followed for affinity measurements, where an anti-human constant kappa chain (HuCk) antibody was conjugated to the surface of a CM5 sensor chip using an amine coupling kit and scAb molecules were immobilised via their HuCk domain. Amine coupling is a very common approach for immobilising the ligand to the chip surface. The chip surface has a dextran matrix derivatised with carboxyl groups, which after activation with N-hydroxysuccinimide (NHS) and 1-ethyl-3-(3-dimethylaminopropyl) carbodiimide (EDC), form reactive succinimide esters which allows the covalent capturing of the ligand via any available primary amine groups (e.g. Lysine) on the ligand (in this case anti-HuCk antibody). The capture antibody was diluted 1/100 in 10 mM Sodium acetate buffer pH 5.0 and passed over the activated chip surface for a period of at least 420 s. Final ligand immobilisation levels over 12,000 RU were deemed to be satisfactory.
Following immobilisation, the level of each scAb to be captured was identified using the standard SPR equation with a theoretical RMax of 100 RU. Analyte MW refers to the molecular weight of hT40 or dGA/dGAE molecules, while ligand MW refers to the molecular weight of the scAbs tested. RL is the desired capture level and S refers to the stoichiometric ratio:
The scAb to be tested was added only to flow cell 2 so that flow cell 1 could act as a control to subtract any interaction with the analyte and the chip surface. Both single and multi-cycle runs were utilised using wizards developed in the Biacore X100 control software which are both accepted methods of kinetic analysis (Karlsson, R., et al. Analyzing a kinetic titration series using affinity biosensors (2006) Analytical Biochemistry 349:136-47). The multi-cycle protocol was as follows-Three start-up cycles composed of an initial capture, to the desired level, of the scAb to be tested was performed followed by a 30 s injection of glycine buffer pH 2.0 after each cycle to regenerate the chip surface. The regeneration step removed any captured scAb whilst leaving the capture antibody intact and able to repeat the capture for the next cycle. […]
The single cycle kinetics protocol was similar and utilised the same level of scAb capture. […] Binding responses were analysed in Biacore X100 evaluation software and data fitted to a 1:1 binding model to obtain kinetic and affinity characterisation.

[2] = test system: 13 aa tau peptides of hT40; experiment: Alanine scanning mutagenesis (ASM) peptide ELISA; format: binding, human; conditions: alanine substituted peptides; numbering SEQ ID NO: 1
Experimental: Briefly, 5 μg/ml streptavidin (Thermo Fisher) was adsorbed to Nunc 96-well MaxiSorp plates and following incubation at 37° C. for 1 h, the plates were washed as normal and blocked with 2% MPBS. N-terminally biotinylated peptides (Prolmmune Ltd) were added to the plates and incubated for 1 h at 37° C. Subsequently, test scAbs at starting concentrations of 100-500 nM was added and double diluted across the plate for each peptide and incubated for 1 h at 37° C. Rest of the ELISA was conducted as described above and the plates were read at absorbance 450 nm. Immunoreactivity of the scAb of interest was quantified as the % of scAb was bound for each peptide at a chosen concentration (FIG. 15-20).

[3] = target: T1, hT40 (T441, SEQ ID NO: 1) (Homo sapiens, UniProt P10636); experiment: Biacore X100 SPR kinetics of scAbs for hT40; format: binding; conditions: scAb format
T1 construct: Full length tau (hT40)
In short: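 Captured scAb on anti-HuCk CM5 surface (flow cell 1 as reference) in HBS-EP+, capture set for theoretical RMax 100 RU; hT40 injected multi-cycle (0.15625–100 nM) or single-cycle (6.25–100 nM), 120 s association, 420 s dissociation, glycine pH 2.0 regeneration. Kinetics and affinity from 1:1 binding model fit.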

dGAE aggregates = dGAE aggregates (Homo sapiens, UniProt P10636); experiment: Sandwich ELISA on SDS/Triton X-100 treated dGAE aggregates; format: binding; conditions: S1D12 mAb capture, S1G2 scAb detection; SDS + Triton X-100
Experimental: We have noticed Sodium dodecyl sulphate (SDS) can break apart dGA/dGAE aggregates and separate them into smaller fragments by performing an SDS-PAGE. This has been replicated and tested using an ELISA as described below.
For aggregation, 1000 μL 100 μM dGAE+10 μL 10 mM DTT was added to a ‘LoBind’ microfuge tubes and agitated at 700 RPM/37° C. for 24 hours. Resulting sample centrifuged at 17,000×g/4° C. for 60 min and supernatant discarded to remove left over monomer. Pellet resuspended in half the original volume for future experiments and hereafter referred to as ‘aggregates’. 1 μl of aggregates was added to 1 ml of PBS and SDS was added to a final concentration of 1% (w/v). This was left to incubate on lab bench for 1 h with gentle agitation every 15 minutes. In order to neutralize the SDS effect on ELISA, Triton X-100 added to a final concentration of 3% (v/v) and mixed gently by pipetting to prevent any bubble formation. 200 μl added of this mix was to the first well of an ELISA plate coated with 1 μg/ml S1D12 mAb and blocked with 2% MPBS. Similarly aggregates treated with only SDS or Triton X-100, untreated aggregates, dGAE monomers treated with only SDS or SDS+Titon X-100 were also added to designated wells as controls. All samples were then double diluted across the plate in final volumes of 100 μl. The final column was left with no protein to act as a blank. This was allowed to stand at room temperature for 1 hour followed by the addition of detection scAb-S1G2 at 10 μg/ml. Anti-HuCk HRP labelled secondary antibody was added as described previously and ELISA data generated was represented using the graph below.

[4] = test system: core tau in plasma of wildtype, Line 1 and Line 66 mice; experiment: S1D12 mAb 6-week repeat-dose mouse study; plasma tau by CA4-S1G2 Simoa; format: in vivo; conditions: for plasma tau (CA4-S1G2 Simoa): 30 mg/kg i.p. once per week, six weeks
Experimental: A total of 12 wildtype, 12 Line 1 and 12 Line 66 female mice were used in this study-Line 1 and Line 66 are transgenic mouse models of tauopathy ( Melis et al., 2015). Animals were 2 months old at the beginning of the study. Mice of each genotype were injected intraperitoneally (i.p.) with either vehicle or S1D12 mAb (30 mg/kg), once per week, for six consecutive weeks.
Seven days post final dose, cardiac puncture blood sampling was performed. mice were anaesthetised using an overdose of sodium pentobarbital (i.p.) and blood was collected via cardiac puncture through a Plastipak syringe pre-rinsed with heparinised saline (10 U/mL) and transferred into a plastic vial containing lithium heparin anticoagulant. Blood samples were centrifuged to obtain plasma at 2,000×g for 5 min at 6° C.
A three-step assay was performed and analysed by following the previously described plasma screening methods using CA4 antibody capture beads, S1G2 detector (10 ng/ml) and the plasma samples added in 1:8 dilution.

Sequence of dGAE (SEQ ID NO: 4) (P10636 614-708): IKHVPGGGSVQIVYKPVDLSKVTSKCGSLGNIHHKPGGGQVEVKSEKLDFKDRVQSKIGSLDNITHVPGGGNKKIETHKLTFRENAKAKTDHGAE
T1 sequence (P10636 1-441 isoform P10636-8): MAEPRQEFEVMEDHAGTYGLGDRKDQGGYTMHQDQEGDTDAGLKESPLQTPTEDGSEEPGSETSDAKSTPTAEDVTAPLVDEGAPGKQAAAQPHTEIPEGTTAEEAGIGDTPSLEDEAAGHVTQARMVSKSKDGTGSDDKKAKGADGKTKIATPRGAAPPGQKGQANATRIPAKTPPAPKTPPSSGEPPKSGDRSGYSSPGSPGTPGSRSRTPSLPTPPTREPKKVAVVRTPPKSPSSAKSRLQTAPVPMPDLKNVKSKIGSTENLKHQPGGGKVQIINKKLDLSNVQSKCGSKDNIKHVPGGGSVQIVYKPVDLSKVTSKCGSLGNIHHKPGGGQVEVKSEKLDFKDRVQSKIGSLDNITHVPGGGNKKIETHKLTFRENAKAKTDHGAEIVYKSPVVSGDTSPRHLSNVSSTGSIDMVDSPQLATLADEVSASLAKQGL
Sequence of dGAE aggregates (P10636 614-708): as the sequence (P10636 614-708) above

| Molecule | cross-reactivity using hT40, dGA and dGAE antigens [1] | Tau proteins/fragments with positive scAb reactivity [1] | ka (dGAE (SEQ ID NO: 4)) | Kd (dGAE (SEQ ID NO: 4)) | Epitope ([1]; Table 26 summary, top scAbs, residues of hT40) | Detection scAb (Epitope) ([1]; Table 28 (LoD table), residues of hT40) | critical binding residues [2] | T441 binding in SPR (result in words) ([3]; Table 23) | hT40 binding (result in words) ([3]; Table 26 summary) | dGAE aggregates detectable (dGAE aggregates) | increase of core tau in plasma vs vehicle ([4]; L1 mice) | plasma tau (CA4-S1G2 Simoa) ([4]; L1 mice) | plasma tau (CA4-S1G2 Simoa) ([4]; L66+/+ mice, mean (SEM)) | increase of core tau in plasma vs vehicle ([4]; L66 mice) | increase of core tau in plasma vs vehicle ([4]; wild-type mice) | plasma tau (CA4-S1G2 Simoa) ([4]; wildtype mice, mean (SEM)) |
| --- | --- | --- | --- | --- | --- | --- | --- | --- | --- | --- | --- | --- | --- | --- | --- | --- |
| B1 | specific dGAE binding | 297-391 (dGAE) | 153500 M⁻¹ s⁻¹ | 0.0014 s⁻¹ | – | – | – | – | – | – | – | – | – | – | – | – |
| B2 | specific dGAE binding | 297-391 (dGAE) | 477000 M⁻¹ s⁻¹ | 0.0001915 s⁻¹ | 391 | E2E8 (E dependant) | 391 (E) | No T441 binding | No hT40 binding | – | – | – | – | – | – | – |
| B3 | – | – | – | – | – | – | – | – | – | approximately 2 ng/ml | more than 100 fold | > 100 ng/mL | 3.52 (0.20) ng/ml | more than a threefold increase | less than a two-fold increase | 3.57 (0.22) ng/ml |
